Target: Notch receptor (Drosophila) (UniProt P07207)
Experiment: competitive cell aggregation assay

Chain of UniProt P07207 (P07207 53-2703): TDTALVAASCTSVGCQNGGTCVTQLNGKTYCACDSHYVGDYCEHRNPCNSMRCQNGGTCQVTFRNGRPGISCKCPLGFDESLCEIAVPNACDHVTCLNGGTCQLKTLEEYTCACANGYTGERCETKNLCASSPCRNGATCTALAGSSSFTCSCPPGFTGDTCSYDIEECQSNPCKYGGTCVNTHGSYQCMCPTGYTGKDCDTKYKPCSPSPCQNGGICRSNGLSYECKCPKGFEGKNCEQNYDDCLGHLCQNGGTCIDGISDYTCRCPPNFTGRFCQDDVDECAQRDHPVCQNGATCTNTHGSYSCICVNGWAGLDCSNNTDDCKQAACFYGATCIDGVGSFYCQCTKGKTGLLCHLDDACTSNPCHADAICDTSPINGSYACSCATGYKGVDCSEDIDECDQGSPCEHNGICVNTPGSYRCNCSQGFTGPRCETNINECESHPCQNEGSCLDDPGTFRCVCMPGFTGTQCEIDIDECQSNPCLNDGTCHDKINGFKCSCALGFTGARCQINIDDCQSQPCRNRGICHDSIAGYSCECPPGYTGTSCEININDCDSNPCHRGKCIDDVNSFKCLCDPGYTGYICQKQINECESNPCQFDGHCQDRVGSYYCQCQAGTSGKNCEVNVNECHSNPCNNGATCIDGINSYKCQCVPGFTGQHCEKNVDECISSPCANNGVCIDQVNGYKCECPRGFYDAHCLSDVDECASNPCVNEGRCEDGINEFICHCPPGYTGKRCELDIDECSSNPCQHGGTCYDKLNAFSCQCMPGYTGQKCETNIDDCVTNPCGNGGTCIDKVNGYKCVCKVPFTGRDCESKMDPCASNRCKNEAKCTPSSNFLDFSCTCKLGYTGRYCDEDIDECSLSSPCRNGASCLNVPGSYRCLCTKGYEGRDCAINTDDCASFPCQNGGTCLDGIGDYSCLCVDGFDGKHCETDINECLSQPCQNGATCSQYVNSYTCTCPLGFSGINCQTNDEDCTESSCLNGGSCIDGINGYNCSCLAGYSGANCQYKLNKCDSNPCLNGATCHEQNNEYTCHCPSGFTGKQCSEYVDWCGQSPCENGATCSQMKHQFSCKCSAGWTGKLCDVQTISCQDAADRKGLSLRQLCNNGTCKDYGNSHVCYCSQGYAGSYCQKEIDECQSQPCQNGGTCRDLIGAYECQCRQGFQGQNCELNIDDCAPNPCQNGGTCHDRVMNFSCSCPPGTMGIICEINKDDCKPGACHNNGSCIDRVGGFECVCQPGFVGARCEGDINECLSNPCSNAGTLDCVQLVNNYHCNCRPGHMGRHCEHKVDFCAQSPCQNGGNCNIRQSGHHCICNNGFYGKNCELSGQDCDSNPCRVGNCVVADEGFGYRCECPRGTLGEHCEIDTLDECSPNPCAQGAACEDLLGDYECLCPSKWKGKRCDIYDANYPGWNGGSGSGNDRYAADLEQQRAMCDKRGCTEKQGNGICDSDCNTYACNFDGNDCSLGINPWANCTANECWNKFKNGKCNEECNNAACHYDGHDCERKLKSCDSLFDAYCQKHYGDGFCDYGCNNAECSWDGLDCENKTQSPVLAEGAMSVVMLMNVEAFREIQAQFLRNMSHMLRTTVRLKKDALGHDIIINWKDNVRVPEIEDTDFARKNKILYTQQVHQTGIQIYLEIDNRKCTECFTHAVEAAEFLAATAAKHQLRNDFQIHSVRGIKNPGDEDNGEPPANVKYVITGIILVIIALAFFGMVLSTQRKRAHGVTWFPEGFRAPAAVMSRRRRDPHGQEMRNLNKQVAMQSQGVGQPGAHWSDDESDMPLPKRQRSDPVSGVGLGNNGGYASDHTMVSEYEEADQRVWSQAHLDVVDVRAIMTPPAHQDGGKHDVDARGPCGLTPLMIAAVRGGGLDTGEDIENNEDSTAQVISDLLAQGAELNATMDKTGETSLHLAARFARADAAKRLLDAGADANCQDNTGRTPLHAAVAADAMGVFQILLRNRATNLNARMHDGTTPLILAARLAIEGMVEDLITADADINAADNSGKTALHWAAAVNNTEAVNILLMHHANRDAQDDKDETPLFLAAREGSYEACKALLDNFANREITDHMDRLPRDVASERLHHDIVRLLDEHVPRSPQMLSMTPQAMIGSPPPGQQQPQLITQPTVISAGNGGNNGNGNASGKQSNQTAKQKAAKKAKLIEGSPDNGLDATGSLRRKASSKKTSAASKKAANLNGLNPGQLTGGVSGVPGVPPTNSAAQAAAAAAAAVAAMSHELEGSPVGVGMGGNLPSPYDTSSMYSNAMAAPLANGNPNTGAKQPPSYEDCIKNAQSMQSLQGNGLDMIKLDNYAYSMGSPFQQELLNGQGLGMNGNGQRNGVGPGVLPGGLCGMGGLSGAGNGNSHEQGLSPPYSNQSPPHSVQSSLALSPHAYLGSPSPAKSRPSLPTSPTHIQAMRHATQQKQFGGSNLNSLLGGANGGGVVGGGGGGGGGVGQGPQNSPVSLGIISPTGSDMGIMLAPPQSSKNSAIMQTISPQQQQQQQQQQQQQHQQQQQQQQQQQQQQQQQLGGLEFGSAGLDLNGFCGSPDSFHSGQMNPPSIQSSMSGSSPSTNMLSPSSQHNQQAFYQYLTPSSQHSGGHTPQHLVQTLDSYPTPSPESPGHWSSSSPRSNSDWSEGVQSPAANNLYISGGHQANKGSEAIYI

DlEC, extracellular fragment of Delta released by cleavage (from UniProt P10041 19-581) (domain or fragment)
percent inhibition of aggregation at >0.5 μM DlEC: < 20%
